Measured values: patent publication US20220033485A1 (TEIJIN PHARMA, published 2022)
Substitutions are numbered along the chain they refer to. Names and notes keep the numbering of the source.

B1: anti-IGF-I receptor humanized antibody R11-16B (antibody, human IgG4, V domains shown)
VH: QVQLVQPGAELVKPGASVKVSCKAPGYTFTSYWMHWVRQAPGQGLEWIGETNPSNSVTNYNEKFKSKATLTVDTSTSTVYMELSSLRSEDTAVYYCTIGRGRGFAYWGQGTLVTVSS
VL: DIQMTQSPSSLSASVGDRVTITCRASQNINFWLSWYQQKPGKAPKLLIYKASNLHTGVPSRFSGSGSGTDFTFTISSLQPEDIATYYCLQGQSYPYTFGQGTKLEIK
notes: Heavy chain constant region: human IgG4 S228P variant; Expressed in Expi293, protein A purified; also called R11-16B antibody; R11-16VH + R11-16VL-C36Y
B2: anti-IGF-I receptor humanized antibody R11-16F (antibody, human IgG4, V domains shown)
VH: B1 VH
VL: B1 VL with Y36C
notes: also called R11-16F antibody; R11-16VH + R11-16VL-C36
B3: anti-IGF-I receptor humanized antibody R11-16E (antibody, human IgG4, V domains shown)
VH: B1 VH
VL: B1 VL with Y36F
notes: also called R11-16E antibody; R11-16VH + R11-16VL-C36F
B4: anti-IGF-I receptor humanized antibody R11-16C (antibody, human IgG4, V domains shown)
VH: B1 VH
VL: B1 VL with Y36A
notes: also called R11-16C antibody; R11-16VH + R11-16VL-C36A
B5: anti-IGF-I receptor humanized antibody R11-16D (antibody, human IgG4, V domains shown)
VH: B1 VH
VL: B1 VL with Y36S
notes: also called R11-16D antibody; R11-16VH + R11-16VL-C36S

Biological target: T1, human IGF-I receptor (human, UniProt P08069 31-1367)
Experiment: cell-based or functional assay

T1 sequence (P08069 31-1367 limits assumed): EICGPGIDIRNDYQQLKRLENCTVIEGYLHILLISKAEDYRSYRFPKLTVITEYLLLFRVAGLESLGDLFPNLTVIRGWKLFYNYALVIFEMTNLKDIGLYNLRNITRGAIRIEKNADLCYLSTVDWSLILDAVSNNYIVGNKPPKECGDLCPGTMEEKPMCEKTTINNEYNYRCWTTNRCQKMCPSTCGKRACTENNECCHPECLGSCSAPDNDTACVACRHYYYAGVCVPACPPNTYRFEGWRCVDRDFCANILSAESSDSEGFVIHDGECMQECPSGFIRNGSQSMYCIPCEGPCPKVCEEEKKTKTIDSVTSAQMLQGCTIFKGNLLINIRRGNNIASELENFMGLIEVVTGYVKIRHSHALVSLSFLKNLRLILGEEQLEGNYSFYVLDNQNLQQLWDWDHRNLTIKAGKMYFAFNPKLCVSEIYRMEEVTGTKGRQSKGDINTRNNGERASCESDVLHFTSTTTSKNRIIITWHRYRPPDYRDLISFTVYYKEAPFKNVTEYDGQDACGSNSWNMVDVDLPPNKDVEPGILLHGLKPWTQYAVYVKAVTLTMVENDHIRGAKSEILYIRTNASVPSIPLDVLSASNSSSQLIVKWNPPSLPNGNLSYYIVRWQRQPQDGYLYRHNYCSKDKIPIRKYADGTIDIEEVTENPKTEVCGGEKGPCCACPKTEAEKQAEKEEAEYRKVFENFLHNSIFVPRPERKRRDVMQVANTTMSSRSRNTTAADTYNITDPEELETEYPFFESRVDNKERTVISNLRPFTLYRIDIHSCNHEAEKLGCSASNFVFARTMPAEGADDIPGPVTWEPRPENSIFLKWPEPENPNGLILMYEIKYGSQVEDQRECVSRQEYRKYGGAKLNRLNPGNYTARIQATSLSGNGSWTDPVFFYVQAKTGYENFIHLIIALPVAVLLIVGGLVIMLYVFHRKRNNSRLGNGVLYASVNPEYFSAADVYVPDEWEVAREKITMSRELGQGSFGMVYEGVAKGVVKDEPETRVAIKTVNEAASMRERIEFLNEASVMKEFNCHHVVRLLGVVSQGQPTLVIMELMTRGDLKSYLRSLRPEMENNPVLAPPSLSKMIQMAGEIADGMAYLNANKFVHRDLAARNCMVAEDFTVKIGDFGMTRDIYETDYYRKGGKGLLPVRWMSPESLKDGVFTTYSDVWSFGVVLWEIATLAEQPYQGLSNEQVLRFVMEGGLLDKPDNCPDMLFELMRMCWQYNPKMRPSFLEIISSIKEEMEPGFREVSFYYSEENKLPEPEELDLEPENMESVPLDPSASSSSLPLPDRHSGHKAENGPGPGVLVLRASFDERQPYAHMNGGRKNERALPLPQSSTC

Binder	Proliferation activity on human myoblast cells (%), 0.005 nM, Experiment 1 [%]	Proliferation activity on human myoblast cells (%), 0.005 nM, Experiment 2 [%]	Proliferation activity on human myoblast cells (%), 0.5 nM, Experiment 1 [%]	Proliferation activity on human myoblast cells (%), 0.5 nM, Experiment 2 [%]
B1	147	148	164	164
B2	146	148	161	156
B3	150	143	166	164
B4	150	143	178	172
B5	144	149	160	169

Biological target: T1, human IGF-I receptor
Experiment: cell-based or functional assay
Remark: another data set of the same source

Binder	EC50 of proliferation activity on human myoblast cells [pM]
B1	2
B2	2
B3	2
B4	2
B5	2

Biological target: T2, rat IGF-I receptor (rat, UniProt P24062 31-1370)
T2 construct: Whole entry as named; expressed on HEK293T cells; also called IGF-I receptor of rat; NP_434694
Experiment: cell-based ELISA on HEK293T cells expressing the receptor
Protocol: (§1) The HEK293T cells cultured for at least one night after the lipofection were added to a 96-well plate (coated with poly-D-lysine) in 4×10⁴ cells/well, and the plate further cultured for at least one night were used in the ELISA.
(§2) In the ELISA, 2 nM humanized antibody solutions in 1% BSA/1% FBS/PBS (100 μL) were added to respective wells and reacted for about one hour at 37° C. The wells were washed three times with a cleaning solution. An HRP conjugate solutions (100 μL) of an anti-human IgG antibody prepared at various concentrations with 1% BSA/1% FBS/PBS was added to the respective wells and reacted for about one hour at 37° C. Each well was washed three times with a cleaning solution. A TMB substrate (100 μL) was added to each well to initiate the reaction. Approximately 30 minutes later, 1M sulfuric acid (100 μL) was added to each well to measure the absorbances at 450 nm and 650 nm and calculate the difference of the values between 450 nm and 650 nm.

T2 sequence (P24062 31-1370 limits assumed): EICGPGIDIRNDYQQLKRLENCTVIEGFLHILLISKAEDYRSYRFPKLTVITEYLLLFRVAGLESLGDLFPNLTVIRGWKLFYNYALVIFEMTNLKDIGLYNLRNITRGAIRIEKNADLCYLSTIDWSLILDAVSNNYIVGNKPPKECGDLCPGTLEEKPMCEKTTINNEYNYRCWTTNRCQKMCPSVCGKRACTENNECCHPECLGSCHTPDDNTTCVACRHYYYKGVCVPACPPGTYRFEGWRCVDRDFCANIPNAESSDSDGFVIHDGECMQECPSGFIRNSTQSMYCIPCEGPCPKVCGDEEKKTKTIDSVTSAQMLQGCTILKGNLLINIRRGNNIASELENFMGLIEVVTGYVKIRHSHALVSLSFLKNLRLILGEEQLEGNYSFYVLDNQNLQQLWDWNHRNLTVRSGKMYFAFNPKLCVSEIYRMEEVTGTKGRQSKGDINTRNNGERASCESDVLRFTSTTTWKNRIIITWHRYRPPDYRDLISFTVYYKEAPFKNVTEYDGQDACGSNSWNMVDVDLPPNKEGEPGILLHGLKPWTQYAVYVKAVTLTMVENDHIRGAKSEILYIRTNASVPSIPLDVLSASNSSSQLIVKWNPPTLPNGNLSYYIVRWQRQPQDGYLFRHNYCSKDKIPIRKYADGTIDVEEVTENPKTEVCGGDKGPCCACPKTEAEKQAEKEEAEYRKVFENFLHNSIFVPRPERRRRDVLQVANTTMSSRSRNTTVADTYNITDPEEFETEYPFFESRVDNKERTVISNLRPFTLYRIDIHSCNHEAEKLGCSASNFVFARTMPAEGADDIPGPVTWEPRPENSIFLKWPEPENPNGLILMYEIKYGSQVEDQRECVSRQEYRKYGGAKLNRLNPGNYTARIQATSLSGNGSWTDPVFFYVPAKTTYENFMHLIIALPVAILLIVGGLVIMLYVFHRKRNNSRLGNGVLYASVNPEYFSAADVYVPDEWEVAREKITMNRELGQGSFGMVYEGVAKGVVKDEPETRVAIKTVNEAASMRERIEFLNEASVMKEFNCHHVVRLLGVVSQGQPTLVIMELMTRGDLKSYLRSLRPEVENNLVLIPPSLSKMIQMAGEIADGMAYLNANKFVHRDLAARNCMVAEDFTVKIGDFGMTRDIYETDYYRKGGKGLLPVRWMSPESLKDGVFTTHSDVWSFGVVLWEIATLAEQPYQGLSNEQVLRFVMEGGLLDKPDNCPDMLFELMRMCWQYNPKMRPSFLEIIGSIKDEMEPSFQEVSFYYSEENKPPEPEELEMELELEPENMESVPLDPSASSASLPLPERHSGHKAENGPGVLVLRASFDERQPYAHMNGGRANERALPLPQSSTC

Binder	binding result
B1	no binding (tested: 2 nM)
B2	no binding (tested: 2 nM)
B3	no binding (tested: 2 nM)
B4	no binding (tested: 2 nM)
B5	no binding (tested: 2 nM)

Biological target: T3, Substitute 1 of CR domain (human IGF-I receptor D245N, A247T, E294D, C-terminal FLAG tag) (human, UniProt P08069 31-1367)
T3 construct: Expressed on 293T cells, formalin fixed; also called substitute 1 receptor
Experiment: cell-based ELISA, 5 nM R11-16B on fixed 293T cells expressing the FLAG-tagged receptor; Mock cells gave 0.328
Protocol: (§3) 293T cells were seeded in 10-cm dishes coated with poly-D-lysine in 6×10⁶ cells. On the next day, each plasmid DNA was introduced into the cells by lipofection. Two days later, the 293T cells were released with 0.05% trypsin/EDTA and suspended in the culture medium. The 293T cells were added to a 96-well plate (coated with poly-D-lysine) in 2×10⁴ cells/well and incubated overnight at 37° C. under 5% CO₂. The medium was removed from the 96-well plate. The plate was fixed with 10% buffered formalin (Mildform® 10NM, Wako), replaced by a blocking buffer (3% BSA/PBS/0.02% sodium azide), and used for the ELISA.
(§4) Each well was washed two times with a cleaning solution. A 2500-fold diluted solution of an anti-human IgG antibody ALP conjugate solution (2087-04, Southern Biotech) in the blocking buffer (50 μL) was added to each well and reacted for about one hour at room temperature. Each well was washed three times with a cleaning solution. A pNPP substrate (100 μL) was added to each well to initiate the reaction. The absorbances at 405 nm and 550 nm were measured after about one hour.

Binder	Avidity (absorbance, R11-16B added minus not added) [absorbance]
B1	0.885

Biological target: T4, Substitute 2 of CR domain (human IGF-I receptor G315S, S316T, C-terminal FLAG tag) (human, UniProt P08069 31-1367)
T4 construct: Expressed on 293T cells, formalin fixed; also called substitute 2 receptor
Experiment: as above
Protocol: as §3, §4

Binder	Avidity (absorbance, R11-16B added minus not added) [absorbance]
B1	0.308

Biological target: T5, wild-type human IGF-I receptor with C-terminal FLAG tag (human, UniProt P08069 31-1367)
T5 construct: Expressed on 293T cells, formalin fixed; also called positive control
Experiment: as above
Protocol: as §3, §4

Binder	Avidity (absorbance, R11-16B added minus not added) [absorbance]
B1	0.835

Biological target: T1, human IGF-I receptor
Experiment: cell-based ELISA, 2 nM antibody on HEK293T cells expressing the receptor, A450-A650
Protocol: as §1, §2

Binder	Avidity (relative to control HEK293T cells = 1)
B1	3.4 fold of control cells
B2	3.4 fold of control cells
B3	3.7 fold of control cells
B4	3.4 fold of control cells
B5	3.4 fold of control cells

Biological target: T6, cynomolgus monkey IGF-I receptor (cynomolgus monkey, UniProt P08069 31-1367 (human entry))
T6 construct: Whole entry as named; expressed on HEK293T cells; also called IGF-I receptor of cynomolgus monkey; XP_005560575
Experiment: as above
Protocol: as §1, §2

T6 sequence (P08069 other isoform, or with tags, fused parts or gaps limits assumed): as the sequence (P08069 31-1367 limits assumed) above, with T188A, S471W, A729V, P738L, E1238D counted along it

Binder	Avidity (relative to control HEK293T cells = 1)
B1	3.3 fold of control cells
B2	3.3 fold of control cells
B3	3.7 fold of control cells
B4	3.3 fold of control cells
B5	3.4 fold of control cells

Biological target: T2, rat IGF-I receptor
Experiment: as above
Protocol: as §1, §2

Binder	Avidity (relative to control HEK293T cells = 1)
B1	0.8 fold of control cells
B2	0.9 fold of control cells
B3	0.8 fold of control cells
B4	0.9 fold of control cells
B5	0.9 fold of control cells

Biological target: T7, guinea pig IGF-I receptor (guinea pig, UniProt P08069 31-1367 (human entry))
T7 construct: Whole entry as named; expressed on HEK293T cells; also called IGF-I receptor of guinea pig; XP_003475316
Experiment: as above
Protocol: as §1, §2

T7 sequence (P08069 other isoform, or with tags, fused parts or gaps limits assumed): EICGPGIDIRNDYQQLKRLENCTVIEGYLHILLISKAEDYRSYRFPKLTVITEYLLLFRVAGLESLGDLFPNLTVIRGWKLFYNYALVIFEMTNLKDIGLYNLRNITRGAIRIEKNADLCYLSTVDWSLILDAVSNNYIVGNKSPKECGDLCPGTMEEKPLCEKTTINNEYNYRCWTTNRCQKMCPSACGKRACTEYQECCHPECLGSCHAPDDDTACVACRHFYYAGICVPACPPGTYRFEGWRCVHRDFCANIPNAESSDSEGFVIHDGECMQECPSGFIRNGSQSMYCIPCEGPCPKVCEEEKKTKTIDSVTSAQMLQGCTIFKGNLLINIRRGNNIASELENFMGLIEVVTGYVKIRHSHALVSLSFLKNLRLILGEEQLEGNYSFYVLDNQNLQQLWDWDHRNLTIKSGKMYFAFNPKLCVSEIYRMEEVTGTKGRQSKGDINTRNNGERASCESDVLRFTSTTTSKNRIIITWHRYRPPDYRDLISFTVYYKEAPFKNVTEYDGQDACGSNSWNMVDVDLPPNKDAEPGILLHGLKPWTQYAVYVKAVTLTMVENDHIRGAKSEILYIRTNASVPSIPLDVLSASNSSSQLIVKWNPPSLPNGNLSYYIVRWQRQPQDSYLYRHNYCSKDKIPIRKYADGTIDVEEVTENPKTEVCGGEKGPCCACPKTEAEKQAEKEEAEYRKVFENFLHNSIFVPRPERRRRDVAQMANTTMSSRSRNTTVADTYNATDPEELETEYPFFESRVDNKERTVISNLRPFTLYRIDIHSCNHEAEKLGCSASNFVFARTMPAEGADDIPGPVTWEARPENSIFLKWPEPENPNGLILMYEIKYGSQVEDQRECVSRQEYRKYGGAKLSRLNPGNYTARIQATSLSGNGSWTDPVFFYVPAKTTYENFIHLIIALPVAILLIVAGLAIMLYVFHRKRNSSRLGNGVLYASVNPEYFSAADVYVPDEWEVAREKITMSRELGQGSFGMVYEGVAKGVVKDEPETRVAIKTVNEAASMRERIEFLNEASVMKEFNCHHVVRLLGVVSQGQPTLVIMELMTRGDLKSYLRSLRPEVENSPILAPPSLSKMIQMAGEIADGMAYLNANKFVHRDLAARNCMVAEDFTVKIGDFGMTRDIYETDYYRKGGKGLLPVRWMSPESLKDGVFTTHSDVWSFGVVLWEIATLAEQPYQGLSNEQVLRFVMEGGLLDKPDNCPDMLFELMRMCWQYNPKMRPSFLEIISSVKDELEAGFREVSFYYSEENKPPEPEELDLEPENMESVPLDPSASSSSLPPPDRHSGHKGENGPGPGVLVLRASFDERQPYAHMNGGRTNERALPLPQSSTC

Binder	Avidity (relative to control HEK293T cells = 1)
B1	3.3 fold of control cells
B2	3.3 fold of control cells
B3	3.4 fold of control cells
B4	3.3 fold of control cells
B5	3.3 fold of control cells

Biological target: T4, Substitute 2 of CR domain (human IGF-I …)
Experiment: cell-based ELISA on fixed 293T cells expressing the substitute receptor
Protocol: as §3, §4

Binder	binding result
B1	no binding (tested: 5 nM)
